Experimental data taken from US20120082682A1 (GlaxoSmithKline, published 2012).
Numbering of substitutions follows the chain as printed.

Key:
[1] = target: T1, human IL-13 (recombinant E. coli-expressed) (human, UniProt P35225 35-146); experiment: cell-based or functional assay
[2] = target: T1, human IL-13 (recombinant E. …); experiment: Biacore T100 SPR, purified mAb captured on anti-human IgG, IL13 analyte, 1:1 fit
Text: (§1) Table 1 details the overall affinities (equilibrium dissociation constant KD) for the selected constructs from the ProteOn screen and the T100 run

[3] = target: T1, human IL-13 (recombinant E. …); experiment: as above; remark: listed apart in the source
Text: as §1

[4] = target: T1, human IL-13 (recombinant E. …); experiment: Biacore T100 SPR, mAb (supernatant) captured on anti-human IgG, IL13 analyte, 1:1 fit
Text: as §1

[5] = target: T1, human IL-13 (recombinant E. …); experiment: ProteOn XPR36 SPR, mAb (supernatant) captured on anti-human IgG, IL13 analyte, 1:1 fit
Method: The initial screen of CDRH3 mutants was carried out on the ProteOn XPR36 (Biorad). […] 3M MgCl₂ was used to regenerate the capture surface, removing the bound CDRH3 mutant antibodies ready for another cycle of capture and analyte injection. The data was fitted to the 1:1 model using the software inherent to the machine.

[6] = target: T2, human IL-4 (recombinant E. coli-expressed) (human, UniProt P05112 25-153); experiment: cell-based or functional assay
T2 sequence (looked up): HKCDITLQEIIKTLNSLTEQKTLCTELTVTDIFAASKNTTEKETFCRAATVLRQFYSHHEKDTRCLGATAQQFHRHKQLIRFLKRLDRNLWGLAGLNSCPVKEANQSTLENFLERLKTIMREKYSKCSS

[7] = target: T2, human IL-4 (recombinant E. …); experiment: Biacore T100 SPR, Protein A capture (CM5), human IL4 analyte, 1:1 fit
Method: Purified mAbs and mAbdAb constructs were tested in a BIAcore assay to determine whether the mutation of position 89 had any effect on the binding of the dAb to IL-4.
(§2) Protein A was immobilised on a CM5 chip by primary amine coupling; this surface was used as a capture surface for the antibody molecules to be tested. […] Regeneration of the anti-Protein A surface was achieved using 50 mM NaOH. The assay was run at 25° C. using HBS-EP as running buffer. The data was fitted to 1:1 model inherent to the Biacore T100 analysis software.

[8] = target: T2, human IL-4 (recombinant E. …); experiment: as above; remark: listed apart in the source
Method: (§3) Protein A was immobilised on a CM5 chip by primary amine coupling; this surface was used as a capture surface for the antibody molecules to be tested.
(§4) All binding curves were double referenced with a 0 nM injection (i.e. buffer alone). Regeneration of the Protein A surface was with 50 mM NaOH. The assay was run at 25° C. using HBS-EP as running buffer. The data was fitted to 1:1 model inherent to the Biacore T100 analysis software.

[9] = target: T1, human IL-13 (recombinant E. …); experiment: Biacore T100 SPR, Protein A capture (CM5), human IL13 analyte, 1:1 fit
Method: Protein A was immobilised on a CM5 chip by primary amine coupling; this surface was used as a capture surface for the antibody molecules to be tested. […] All binding curves were double referenced with a 0 nM injection (i.e. buffer alone).
Regeneration of the Protein A surface was with 50 mM NaOH. The assay was run at 25° C. using HBS-EP as running buffer. The data was fitted to 1:1 model inherent to the Biacore T100 analysis software.

[10] = target: T2, human IL-4 (recombinant E. …); experiment: Biacore T100 SPR, Protein A capture (CM5), 1:1 fit; paragraph 260 calls Table 20 IL13, its footnote and values point to IL4
Method: as §2, with “Regeneration” for “Regeneration of”, “Protein” for “anti-Protein”, “with” for “achieved using”

[11] = target: T2, human IL-4 (recombinant E. …); experiment: direct binding ELISA, plate coated with 5 ug/ml human IL-4, anti-human kappa light chain-HRP detection, absorbance at 490 nm
Method: 96-well high binding plates were coated with 5 μg/ml human IL-4 (made at GSK) in NaHCO₃ and stored overnight at 4° C. The plates were washed twice with Tris-Buffered Saline with 0.05% of Tween-20 (TBST). 100 μL of blocking solution (1% BSA in TBST buffer) was added in each well and the plates were incubated for at least one hour at room temperature. The mAbdAbs were successively diluted across the plates in blocking solution. After one hour incubation, the plates were washed three times. Goat anti-human kappa light chain specific peroxidase conjugated antibody (Sigma A7164) was diluted in blocking solution to 1 μg/mL and 50 μL was added to each well. The plates were incubated for one hour. After another three washing steps, 50 μl of OPD (o-phenylenediamine dihydrochloride) SigmaFast substrate solution was added to each well and the reaction was stopped after about 5 minutes by addition of 25 μL of 3M sulphuric acid. Absorbance was read at 490 nm using the VersaMax Tunable Microplate Reader (Molecular Devices) using a basic endpoint protocol.

[12] = target: T1, human IL-13 (recombinant E. …); experiment: cell-based or functional assay; remark: listed apart in the source
[13] = target: T1, human IL-13 (recombinant E. …); experiment: Biacore T100 SPR, Protein A capture (CM5), 1:1 fit; paragraph 260 calls Table 21 IL4, the values match IL13 (tables seem swapped)
Method: as §2, with “Regeneration” for “Regeneration of”, “Protein” for “anti-Protein”, “with” for “achieved using”

[14] = target: T2, human IL-4 (recombinant E. …); experiment: Biacore T100 SPR, Protein A capture (C1 chip), human IL4 analyte, 1:1 fit; on-rate beyond the sensitivity of Biacore (footnote)
Method: as §2, with “Cl” for “CM5”, “Regeneration” for “Regeneration of”, “Protein” for “anti-Protein”, “with 100” for “achieved using 50”, “Phosphoric acid.” for “NaOH.”

[15] = target: T2, human IL-4 (recombinant E. …); experiment: Biacore T100 SPR, Protein A capture (CM5), human IL4 analyte, 1:1 fit; footnote: rates not measurable
Method: as §3, §4

[16] = target: T2, human IL-4 (recombinant E. …); experiment: Biacore T100 SPR, Protein A capture (CM5), human IL4 analyte
Method: as §3, §4

[17] = target: T2, human IL-4 (recombinant E. …); experiment: Biacore T100 SPR, Protein A capture (CM5), human IL4 analyte, 1:1 fit; footnote: impossible on-rate
Method: as §3, §4

T1 sequence (P35225 other isoform, or with tags, fused parts or gaps limits assumed): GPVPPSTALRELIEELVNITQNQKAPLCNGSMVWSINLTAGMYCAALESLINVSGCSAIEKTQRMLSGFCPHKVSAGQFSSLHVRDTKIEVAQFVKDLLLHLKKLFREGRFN

B1: A1Y100B AlaL1 (antibody, human IgG1, kappa, V domains shown)
VH: QVQLVQSGAEVKKPGSSVKVSCKASGFYIKDTYMHWVRQAPGQGLEWMGTIDPANGNTKYVPKFQGRVTITADESTSTAYMELSSLRSEDTAVYYCARSIYDDYHADDYYAMDYWGQGTLVTVSS
VL: DIVMTQSPLSLPVTPGEPASISCRSSQNIVHINGNTYLEWYLQKPGQSPRLLIYKISDRFSGVPDRFSGSGSGTDFTLKISRVEADDVGIYYCFQGSHVPWTFGQGTKLEIKR
notes: CDRH3 variant of A1L1
- ND50 (nM), TF-1 cell proliferation bioassay [1]: 0.92 nM
- Kd [2]: 31 pM
- koff [2]: 3e-05 s⁻¹
- kon [2]: 960000 M⁻¹ s⁻¹
- Kd [3]: 32 pM
- koff [3]: 2.58e-05 s⁻¹
- kon [3]: 810000 M⁻¹ s⁻¹
- Kd [4]: 83 pM
- Kd [5]: 75 pM

B2: A1Y100B IleL1 (antibody, human IgG1, kappa, V domains shown)
VH: B1 VH with A106I
VL: B1 VL
notes: CDRH3 variant of A1L1
- ND50 (nM), TF-1 cell proliferation bioassay [1]: 1.1 nM
- Kd [2]: 49 pM
- koff [2]: 5.58e-05 s⁻¹
- kon [2]: 1.15e+06 M⁻¹ s⁻¹
- Kd [3]: 43 pM
- koff [3]: 4.21e-05 s⁻¹
- kon [3]: 989000 M⁻¹ s⁻¹
- Kd [4]: 73 pM
- Kd [5]: 75 pM

B3: A1Y100B TrpL1 (antibody, human IgG1, kappa, V domains shown)
VH: B1 VH with A106W
VL: B1 VL
notes: CDRH3 variant of A1L1
- ND50 (nM), TF-1 cell proliferation bioassay [1]: 1.25 nM
- Kd [2]: 63 pM
- koff [2]: 0.000163 s⁻¹
- kon [2]: 2.57e+06 M⁻¹ s⁻¹
- Kd [3]: 53 pM
- koff [3]: 0.000125 s⁻¹
- kon [3]: 2.38e+06 M⁻¹ s⁻¹
- Kd [4]: 95 pM
- Kd [5]: 68 pM

B4: BPC1085 (bispecific antibody, human IgG1, kappa)
heavy: not shown
light: DIVMTQSPLSLPVTPGEPASISCRSSQNIVHINGNTYLEWYLQKPGQSPRLLIYKISDRFSGVPDRFSGSGSGTDFTLKISRVEADDVGIYYCFQGSHVPWTFGQGTKLEIKRTVAAPSVFIFPPSDEQLKSGTASVVCLLNNFYPREAKVQWKVDNALQSGNSQESVTEQDSKDSTYSLSSTLTLSKADYEKHKVYACEVTHQGLSSPVTKSFNRGEC
notes: also called 829H-GS(TVAAPSGS)2-154 (89Q)
- Mean ND50 value (nM), TF-1 cell proliferation bioassay [6]: 9.21 nM
- Kd [7]: 52 pM
- Kd [8]: 78 pM
- Kd [9]: 73 pM
- Kd [10]: 48 pM
- EC50 (read off the curve) [11]: ~4000 pM

B5: DOM9-155-154 (other)
VL: DIQMTQSPSSLSASVGDRVTITCRASRPISDWLHWYQQKPGKAPKLLIAWASSLQGGVPSRFSGSGSGTDFTLTISSLQPEDFATYYCLQEGWGPPTFGQGTKVEIKR
- Mean ND50 value (nM), TF-1 cell proliferation bioassay [6]: 0.98 nM

B6: BPC1624 (bispecific antibody, human IgG1, kappa)
heavy: not shown
light: B4 light
- ND50 human IL-13, TF-1 cell proliferation bioassay [12]: 0.553 nM

B7: BPC1625 (bispecific antibody, human IgG1, kappa)
heavy: not shown
light: B4 light
- ND50 human IL-13, TF-1 cell proliferation bioassay [12]: 0.542 nM

B8: BPC1626 (bispecific antibody, human IgG1, kappa)
heavy: not shown
light: B4 light
- ND50 human IL-13, TF-1 cell proliferation bioassay [12]: 0.681 nM

B9: BPC1627 (bispecific antibody, human IgG1, kappa)
heavy: not shown
light: B4 light
- ND50 human IL-13, TF-1 cell proliferation bioassay [12]: 0.615 nM

B10: BPC1086 (bispecific antibody, human IgG1, kappa)
heavy: not shown
light: B4 light
notes: also called 829H-GS(TVAAPSGS)3-154 (89Q)
- Kd [13]: 51 pM
- koff [13]: 6.57e-05 s⁻¹
- kon [13]: 1.28e+06 M⁻¹ s⁻¹
- EC50 (read off the curve) [11]: ~4000 pM

B11: BPC2230 (bispecific antibody, human IgG1, kappa)
heavy: not shown
light: B4 light
notes: mAbdAb with the original CDRH3 and the unmutated DOM9-155-154 dAb
- Kd [14]: 10 pM

B12: BPC2231 (bispecific antibody, human IgG1, kappa)
heavy: not shown
light: B4 light
notes: as for B11
- Kd [10]: 2 pM
- Kd [14]: 6 pM
- EC50 (read off the curve) [11]: ~3000 pM

B13: BPC1112 (bispecific antibody, human IgG1, kappa)
heavy: not shown
light: B4 light
notes: mAbdAb; dAb Kabat 89 K; also called 829H-(TVAAPS)2GS-154 (89K)
- Kd [15]: 29000 pM
- koff [15]: 3.31 s⁻¹

B14: BPC1113 (bispecific antibody, human IgG1, kappa)
heavy: not shown
light: B4 light
notes: mAbdAb; dAb Kabat 89 D; also called 829H-(TVAAPS)2GS-154 (89D)
- binding result [16]: no binding (tested: IL4 up to 64 nM)

B15: BPC1115 (bispecific antibody, human IgG1, kappa)
heavy: not shown
light: B4 light
notes: mAbdAb; dAb Kabat 89 Y; also called 829H-(TVAAPS)2GS-154 (89Y)
- Kd [17]: 2290 pM
- koff [17]: 0.329 s⁻¹
- kon [17]: 1.44e+08 M⁻¹ s⁻¹

B16: BPC1119 (bispecific antibody, human IgG1, kappa)
heavy: not shown
light: B4 light
notes: mAbdAb; dAb Kabat 89 P; also called 829H-(TVAAPS)2GS-154 (89P)
- binding result [16]: no binding (tested: IL4 up to 64 nM)
